How the values were obtained:
[1] = test system: LNCaP cells; assay: MTS cell growth assay of transfected LNCaP cells; assay type: cell-based, human; details: charcoal stripped serum, absence or presence of 0.5 nM R1881
Method: LNCaP cells were transfected by AR-V7 and the control vector. A. Cell growth in medium supplemented with charcoal stripped serum (CSS) in absence or presence of 0.5 nM R1881 were monitored by MTS assay. Ectopic expression of AR-V7 in LNCaP cells was confirmed by western blot analysis (B). As shown the growth rates of AR-V7 expressing cells surpassed those of parental cells cultured in the presence of synthetic androgen R1881.

[2] = test system: androgen-responsive genes (KLK3, KLK2, NKX3-1, FKBP5, TMPRSS2); details: LNCaP cells, absence of androgens
From the text: LNCaP cells were transfected with pcDNA-AR-V7 to express the untagged AR-V7 protein or the control pcDNA vector and cultured with or without 10 nmol/L R1 881 before being harvested for Western blot analysis or RNA extraction for expression microarray analysis. The genes shown were the top 20 ranked genes by fold induction following R1 881 treatment in pcDNA empty vector-transfected LNCaP cells. Expression ratios of the test sample versus the common reference (pcDNA empty vector-transfected LNCaP without R1 881) were represented by red (>1) and green colors (<1).

[3] = test system: PSA reporter gene; details: exogenously transfected, AR-negative PC-3 cells, presence or absence of R1881
From the text: PC-3 cells were transfected with pEGFP-AR and pEGFP-AR-V7 to express the prototype AR or AR-V7 and examined for the localization of GFP-tagged AR proteins in the presence or absence of 5 nmol/L R1 881. […] PC-3 cells were transfected with vector control (EGFP), a LBD-truncated AR mutant (EGFP-Q640X), AR-V7 (EGFP-AR-V7), and prototype AR (EGFP-AR) and subjected to luciferase assays and Western blot analysis following culturing in the presence or absence of R1 881. […] LNCaP cells were transfected with pcDNA-AR-V7 to express the untagged AR-V7 protein or the control pcDNA vector and cultured with or without 10 nmol/L R1 881 before being harvested for Western blot analysis or RNA extraction for expression microarray analysis. The genes shown were the top 20 ranked genes by fold induction following R1 881 treatment in pcDNA empty vector-transfected LNCaP cells. Expression ratios of the test sample versus the common reference (pcDNA empty vector-transfected LNCaP without R1 881) were represented by red (>1) and green colors (<1).
pEGFP-AR and pEGFP-Q640X, which contain the full-length prototype AR and AR Q640X LBD-truncated mutant cDNA, were kind gifts of Dr. Jocelyn Céraline (Université Strasbourg, Strasbourg, France). The cDNA encoding the full-length AR-V7 was inserted into the pEGFP-C3 vector to express the GFP-AR-V7 fusion protein. […]

B1: AR-V7: androgen receptor variant lacking the ligand binding domain, SEQ ID NO: 8, expressed from transfected cDNA (protein)
chain: MEVQLGLGRVYPRPPSKTYRGAFQNLFQSVREVIQNPGPRHPEAASAAPPGASLLLLQQQQQQQQQQQQQQQQQQQQQQQETSPRQQQQQQGEDGSPQAHRRGPTGYLVLDEEQQPSQPQSALECHPERGCVPEPGAAVAASKGLPQQLPAPPDEDDSAAPSTLSLLGPTFPGLSSCSADLKDILSEASTMQLLQQQQQEAVSEGSSSGRAREASGAPTSSKDNYLGGTSTISDNAKELCKAVSVSMGLGVEALEHLSPGEQLRGDCMYAPLLGVPPAVRPTPCAPLAECKGSLLDDSAGKSTEDTAEYSPFKGGYTKGLEGESLGCSGSAAAGSSGTLELPSTLSLYKSGALDEAAAYQSRDYYNFPLALAGPPPPPPPPHPHARIKLENPLDYGSAWAAAAAQCRYGDLASLHGAGAAGPGSGSPSAAASSSWHTLFTAEEGQLYGPCGGGGGGGGGGGGGGGGGGGGGGGEAGAVAPYGYTRPPQGLAGQESDFTAPDVWYPGGMVSRVPYPSPTCVKSEMGPWMDSYSGPYGDMRLETARDHVLPIDYYFPPQKTCLICGDEASGCHYGALTCGSCKVFFKRAAEGKQKYLCASRNDCTIDKFRRKNCPSCRLRKCYEAGMTLGEKFRVGNCKHLKMTRP
cell growth [1]: promotes androgen independent growth
induction of androgen-responsive genes [2]: induced canonical androgen-responsive genes
PSA reporter gene expression [3]: induced PSA reporter gene expression in an androgen-independent manner
